Where two headings read alike, the source gives them in different places. Square brackets hold non-standard residues; d marks the D form. Side chains are listed from the residue outwards. Ends that are not written are not given here. Peptide text beside a SMILES is read from it. * marks the point of attachment. DOTA = O=C(O)CN1CCN(CC(=O)O)CCN(CC(=O)*)CCN(CC(=O)O)CC1; Palmitoyl = CCCCCCCCCCCCCCCC(=O)*
T1: C-X-C motif chemokine receptor 4 (CXCR4) on Jurkat cells (human (endogenous in Jurkat), UniProt P61073 1-352)
T1 chain: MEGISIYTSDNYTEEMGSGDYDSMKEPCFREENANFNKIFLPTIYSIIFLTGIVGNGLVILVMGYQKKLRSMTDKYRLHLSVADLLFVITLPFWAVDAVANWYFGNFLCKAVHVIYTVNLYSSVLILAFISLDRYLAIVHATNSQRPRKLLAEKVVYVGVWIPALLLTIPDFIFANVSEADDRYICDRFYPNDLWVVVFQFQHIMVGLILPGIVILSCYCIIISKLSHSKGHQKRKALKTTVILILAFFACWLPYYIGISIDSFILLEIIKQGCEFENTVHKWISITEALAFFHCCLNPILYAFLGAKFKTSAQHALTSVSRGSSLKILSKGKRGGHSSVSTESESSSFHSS

B1: EPI-X4 (endogenous peptide inhibitor of CXCR4) (peptide)
peptide: LVRYTKKVPQVSTPTL
notes: 16-mer fragment of human serum albumin; also called wild-type EPI-X4; source: synthetic peptide
B2: ligand-1 (peptide)
peptide: ILRWSRKLPCVSK(DOTA)
notes: source: synthetic peptide (Fmoc solid phase synthesis, RP-HPLC purified)
B3: ligand-6 (peptide)
peptide: [dL]LRWSRKLPCVSK(DOTA)
notes: as ligand-1 with isoleucine 1 substituted by D-leucine; source: synthetic peptide (Fmoc solid phase synthesis, RP-HPLC purified)
B4: ligand-2 (peptide)
peptide: ILRWSRKLPSVSK(DOTA)
notes: as ligand-1 with serine instead of cysteine at position 10; source: synthetic peptide (Fmoc solid phase synthesis, RP-HPLC purified)
B5: ^natLu-6 (peptide)
peptide: [dL]LRWSRKLPCVSK(DOTA)
modifications: also: DOTA complexed with natLu
notes: natLu and 177Lu complexes are written as one molecule; they differ only in the isotope; also called ^177Lu-6; Lu complex of ligand-6 (monomer); source: synthetic peptide, complexed with natLuCl3, monomer isolated by semipreparative RP-HPLC; ^177Lu form labelled with 177LuCl3 in the presence of DTT
B6: ^natLu-2 (peptide)
peptide: ILRWSRKLPSVSK(DOTA)
modifications: also: natLu complexed by DOTA
notes: natLu and 177Lu complexes are written as one molecule; they differ only in the isotope; also called ^177Lu-2; Lu complex of ligand-2; source: synthetic peptide, complexed with natLuCl3; ^177Lu form labelled with 177LuCl3
B7: ligand-5 (peptide)
peptide: ILRWSRK(DOTA)-NH2
modifications: N-terminus assumed
SMILES: CC[C@H](C)[C@H](N)C(=O)N[C@@H](CC(C)C)C(=O)N[C@@H](CCCNC(=N)N)C(=O)N[C@@H](Cc1c[nH]c2ccccc12)C(=O)N[C@@H](CO)C(=O)N[C@@H](CCCNC(=N)N)C(=O)N[C@@H](CCCCNC(=O)CN1CCN(CC(=O)O)CCN(CC(=O)O)CCN(CC(=O)O)CC1)C(N)=O
notes: shortest truncated JM#21 derivative; DOTA on its own K7; source: synthetic peptide (Fmoc solid phase synthesis, RP-HPLC purified)
B8: ligand-4 (peptide)
peptide: ILRWSRKK(DOTA)-NH2
notes: truncated JM#21 derivative with added C-terminal K(DOTA)-NH2; source: synthetic peptide (Fmoc solid phase synthesis, RP-HPLC purified)
B9: ^natLu-9 (peptide)
peptide: [dL]LRWSRK([Glu-Palmitoyl])K(DOTA)-NH2
modifications: also: natLu complexed by DOTA
notes: natLu and 177Lu complexes are written as one molecule; they differ only in the isotope; also called ^177Lu-9; Lu complex of ligand-9; source: synthetic peptide, complexed with natLuCl3; ^177Lu form labelled with 177LuCl3
B10: ligand-9 (peptide)
peptide: [dL]LRWSRK([Glu-Palmitoyl])K(DOTA)-NH2
notes: main chain of 8 residues; source: synthetic peptide (Fmoc solid phase synthesis, RP-HPLC purified)
B11: ^natLu-1 (peptide)
peptide: ILRWSRKLPCVSK(DOTA)
modifications: also: natLu complexed by DOTA
notes: natLu and 177Lu complexes are written as one molecule; they differ only in the isotope; also called ^177Lu-1; Lu complex of ligand-1 (monomer); source: synthetic peptide, complexed with natLuCl3, monomer isolated by semipreparative RP-HPLC; ^177Lu form labelled with 177LuCl3 in the presence of DTT
B12: ligand-3 (peptide)
peptide: ILRWSRKLPK(DOTA)-NH2
modifications: N-terminus assumed
SMILES: CC[C@H](C)[C@H](N)C(=O)N[C@@H](CC(C)C)C(=O)N[C@@H](CCCNC(=N)N)C(=O)N[C@@H](Cc1c[nH]c2ccccc12)C(=O)N[C@@H](CO)C(=O)N[C@@H](CCCNC(=N)N)C(=O)N[C@@H](CCCCN)C(=O)N[C@@H](CC(C)C)C(=O)N1CCC[C@H]1C(=O)N[C@@H](CCCCNC(=O)CN1CCN(CC(=O)O)CCN(CC(=O)O)CCN(CC(=O)O)CC1)C(N)=O
notes: as for B8
B13: EPI-X4 JM#21 (peptide)
peptide: ILRWSRKLPCVS
notes: activity-optimised, truncated 12-mer derivative of EPI-X4 (rational design); source: synthetic peptide
B14: ^natLu-7 (peptide)
peptide: [dI]LRWSRKK(DOTA)-NH2
modifications: also: natLu complexed by DOTA
notes: natLu and 177Lu complexes are written as one molecule; they differ only in the isotope; also called ^177Lu-7; Lu complex of ligand-7; source: synthetic peptide, complexed with natLuCl3; ^177Lu form labelled with 177LuCl3
B15: ^natLu-8 (peptide)
chain: IVRWSKK(Palmitoyl)VPCSK(DOTA)
modifications: also: natLu complexed by DOTA
B16: ligand-7 (peptide)
peptide: [dI]LRWSRKK(DOTA)-NH2
modifications: N-terminus assumed
SMILES: CC[C@@H](C)[C@@H](N)C(=O)N[C@@H](CC(C)C)C(=O)N[C@@H](CCCNC(=N)N)C(=O)N[C@@H](Cc1c[nH]c2ccccc12)C(=O)N[C@@H](CO)C(=O)N[C@@H](CCCNC(=N)N)C(=O)N[C@@H](CCCCN)C(=O)N[C@@H](CCCCNC(=O)CN1CCN(CC(=O)O)CCN(CC(=O)O)CCN(CC(=O)O)CC1)C(N)=O
notes: as ligand-4 with isoleucine 1 substituted by D-isoleucine; also called DOTA conjugate of JM#173; source: synthetic peptide (Fmoc solid phase synthesis, RP-HPLC purified)
B17: ^natLu-5 (peptide)
peptide: ILRWSRK(DOTA)-NH2
modifications: also: natLu complexed by DOTA
notes: natLu and 177Lu complexes are written as one molecule; they differ only in the isotope; also called ^177Lu-5; Lu complex of ligand-5; source: synthetic peptide, complexed with natLuCl3; ^177Lu form labelled with 177LuCl3

Assays:
[1] = type: in vitro ADME; conditions: human; for plasma protein binding (PPB): 60 min; for fraction unbound at 60 min: plasma, plasma protein binding (PPB)
Method: (§1) Figure 3 Stability of the ^177Lu ligands in human plasma at 37 °C, expressed as % of intact radioligand over time, assessed by radio-HPLC. The % of plasma protein binding (PPB) after 60 min incubation is provided in parenthesis and it is expressed as the % of radioligand in the protein fraction (pellet) versus the total activity in the plasma. TEXT PRINTED IN THE PICTURE: ^177Lu-1: PPB: 35% | ^177Lu-2: PPB: 22% | ^177Lu-5: PPB: 42% | ^177Lu-6: PPB: 38% | ^177Lu-7: PPB: 39% | ^177Lu-9: PPB: 37%
For the determination of plasma protein binding (PPB), 100 μL from the plasma incubated with the ^177Lu ligand was removed and measured in a γ-counter (total radioactivity). Protein precipitation and separation followed, as described above. The supernatant and the protein pellet were then measured in a γ-counter. The percentage of plasma protein binding was calculated as the ratio between the protein-bound radioactivity and the total radioactivity in the plasma.

[2] = type: in vitro ADME, human
Method: Representative radiochromatograms are provided in Figure S25 for ^177Lu-1, ^177Lu-2, and ^177Lu-7. This included ^177Lu-9 despite its fatty acid chain.
as §1
To 1 mL of fresh human plasma, previously equilibrated at 37 °C, 500 pmol (8–10 MBq) of each ^177Lu-labeled ligand was added. The mixture was incubated at 37 °C for different time points (0, 15, 30, 60, and 120 min). At each time point, a 100 μL aliquot was removed and treated with 1.5 excess (v/v) of acetonitrile, to precipitate plasma proteins, followed by centrifugation for 5 min at 3500 rpm. The supernatant was collected and the process of protein precipitation was repeated. Afterward, 100 μL from the supernatant was taken, diluted with water at a ratio of 1:10 (v/v), and injected into radio-HPLC. The radioligand (in)stability was assessed by quantifying the percentage of intact radioligand over time.

[3] = biological target: T2, C-X-C motif chemokine receptor 4 (CXCR4) on Jurkat cells (human (endogenous in Jurkat), UniProt P61073 1-352); test: flow cytometry on cells; competition with APC-labelled anti-CXCR4 antibody clone 12G5 at a fixed concentration close to its KD; Jurkat cells, 50,000 cells/well; ligands serially diluted in PBS; 4 °C, 2 h; PBS with 1% FBS; conditions: one partner purified
T2 construct: CXCR4 naturally expressed at high levels on Jurkat cells (human T lymphoblasts); source: endogenous, on Jurkat cells (clone E6-1, ATCC)

[4] = biological target: T3, C-X-C motif chemokine receptor 4 (CXCR4) on Ghost-CXCR4 cells (UniProt P61073 1-352); test: flow cytometry on cells; competition with APC-labelled anti-CXCR4 antibody clone 12G5 at a fixed concentration close to its KD; Ghost-CXCR4 cells, 50,000 cells/well; ligands serially diluted in PBS; 4 °C, 2 h; PBS with 1% FBS; conditions: one partner purified
T3 construct: CXCR4 stably expressed in Ghost cells (NIH HIV Reagent Program); source: Ghost cells (human osteosarcoma cell line) stably transfected with CXCR4, also expressing CD4; on cells

[5] = biological target: T3, C-X-C motif chemokine receptor 4 …; test: radioligand binding; cellular uptake (surface-bound and internalised) of 177Lu ligands (1 nM) in Ghost-CXCR4 cells, 37 °C, 15-60 min, DMEM with 5% BSA; nonspecific uptake with 100,000-fold excess of AMD3100 subtracted; conditions: one partner purified
[6] = biological target: T1, C-X-C motif chemokine receptor 4 …

Molecule | plasma protein binding (PPB) [1] [%] | fraction unbound at 60 min [1] | time to complete degradation in human plasma [2] [min] | IC50 [3] [nM] | IC50 [4] [nM] | cellular uptake (% of applied activity) [5] | IC50 [6] [nM]
CC(C)C[C@@H](N)C(=O)N[C@@H](CC(C)C)C(=O)N[C@@H](CCCNC(=N)N)C(=O)N[C@@H](Cc1c[nH]c2ccccc12)C(=O)N[C@@H](CO)C(=O)N[C@@H](CCCNC(=N)N)C(=O)N[C@@H](CCCCN)C(=O)N[C@@H](CC(C)C)C(=O)N1CCC[C@H]1C(=O)N[C@@H](CS)C(=O)N[C@H](C(=O)N[C@@H](CO)C(=O)N[C@@H](CCCCNC(=O)CN1CCN(CC(=O)O)CCN(CC(=O)O)CCN(CC(=O)O)CC1)C(=O)O)C(C)C [^177Lu-6, metal not drawn] | ~40 | 0.62 | ≤ 15 |  |  |  | 
CC[C@H](C)[C@H](N)C(=O)N[C@@H](CC(C)C)C(=O)N[C@@H](CCCNC(=N)N)C(=O)N[C@@H](Cc1c[nH]c2ccccc12)C(=O)N[C@@H](CO)C(=O)N[C@@H](CCCNC(=N)N)C(=O)N[C@@H](CCCCNC(=O)CN1CCN(CC(=O)O)CCN(CC(=O)O)CCN(CC(=O)O)CC1)C(N)=O [^177Lu-5, metal not drawn] (H-ILRWSRK(DOTA)-NH2; N-terminus assumed) | ~40 | 0.58 | ≤ 15 |  |  |  | 
CC[C@H](C)[C@H](N)C(=O)N[C@@H](CC(C)C)C(=O)N[C@@H](CCCNC(=N)N)C(=O)N[C@@H](Cc1c[nH]c2ccccc12)C(=O)N[C@@H](CO)C(=O)N[C@@H](CCCNC(=N)N)C(=O)N[C@@H](CCCCN)C(=O)N[C@@H](CC(C)C)C(=O)N1CCC[C@H]1C(=O)N[C@@H](CS)C(=O)N[C@H](C(=O)N[C@@H](CO)C(=O)N[C@@H](CCCCNC(=O)CN1CCN(CC(=O)O)CCN(CC(=O)O)CCN(CC(=O)O)CC1)C(=O)O)C(C)C [^177Lu-1, metal not drawn] |  | 0.65 | ≤ 15 |  |  |  | 
B1 |  |  |  | 1780 | 4540 |  | 
B2 |  |  |  | 303 | 254 |  | 
B3 |  |  |  | 428 | 747 |  | 
B4 |  |  |  | 172 | 258 |  | 
B5 |  |  |  | 465 | 1010 | ~1 % of applied activity | 
B6 |  |  |  | 49 |  | ~1 % of applied activity | 65
B7 |  |  |  | 120 | 424 |  | 
B8 |  |  |  | 161 | 295 |  | 
B9 |  |  |  | 4 | 6 |  | 20
B10 |  |  |  | 13 | 6 |  | 
B11 |  |  |  | 208 | 278 | ~1 % of applied activity | 15
B12 |  |  |  | 45 | 98 |  | 
B13 |  |  |  | 136 | 183 |  | 
B14 |  |  |  | 435 | 481 |  | 272
B15 |  |  |  | 18 | 30 |  | 
B16 |  |  |  | 433 | 570 |  | 
B17 |  |  |  | 113 | 197 | ~1 % of applied activity | 104
